From the nanobody polyreactivity screen of Harvey et al. (2022)

Test: yeast display, Sf9 membrane polyspecificity reagent, FACS + sequencing; frameworks hold sequencing errors
Outline: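 Galactose-induced (36–48 hours) yeast carrying a synthetic nanobody display library were exposed to 10% biotinylated, detergent-solubilized Sf9 membrane reagent at 4 °C for 1 hour. FACS followed streptavidin microbead enrichment, using low and high (top ~1%) gates for expression (anti-HA) and reagent binding (streptavidin). Colony PCR, MiSeq 2 × 250 sequencing and CDR-length filtering followed. Labels for polyreactivity reflect the gate of origin.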

Sequence: QVQLVESGGGSVQAGGSLRLSCAASGRTFVFNAMGWYRQAPGKESELVAGISGSGGSTYYAESVKGRFTISRDNAKNNVYLQMNSLKPEDTAVYYCANTFPRKELDQESVSGLGYWGQGTQVTVSS
- polyreactivity (PSR sort gate): low polyreactivity

Sequence: QVQLVESRGGLVQAGGSLRLSCAASGRTFVPYAMGWYIQAPGKERELVAAISYSGDSTYYADSVKGRFTISRDNAKNTVYLQLNSLKPEDTAVYYCAAPSYFRMGYWGQGTQVTVSS
- polyreactivity (PSR sort gate): low polyreactivity

Sequence: QVQLVESGGGLVQAGGSLRLSCAASGRIFGPYTMGWYRQAPGKERELVAAITGRVVSTYYADSVKGRFTISRDNAKNTVYLQMNSLKPEDTAVYYCAKASHYWSQRFGYWGQGTQVTVSS
- polyreactivity (PSR sort gate): high polyreactivity

Sequence: QVQLVESGGGLVQAGGSLRLSCAAYGITFEVNAMGWYRQAPGKERELVAAINSSVASTYYADSVKGRFTISRDNAKNTVDLQMNSLKPEDTAVYYCAAQGKGGTEYGYGYWGQGTQVTVSS
- polyreactivity (PSR sort gate): low polyreactivity

Sequence: QVQLVESGGGLVHAGGSLRLSCASSGRTFAYSAMGWYRQAPGIERELVATITSAGSTNYADSVKGRFTISRDNAKNTVYLQMNSLKPEDTAVYYCNRRVWGSSRLKYNYWGQGTQVTVSS
- polyreactivity (PSR sort gate): high polyreactivity

Sequence: QVQLVESGGGLVQAGGRLRLSCAASGFTLTRNAMGWYRQAPGKERELVAAISWSGGTTYYADSVKGRFTISRDNAKNTVYLQMNSLKPEDTAVYYCNTASLRAHYYYWGQGTQVTVSS
- polyreactivity (PSR sort gate): high polyreactivity

Sequence: QVQQQESGGGLVQAGGSLRLSCAASGTIFQLTVMGRYRQAPGKERELVASIDYGGNTNYADSVKGRFTISRDNAKNTVYLQMNRLKPEDTAVYYCSASSDSWTTHPYWGQGTQVTVSS
- polyreactivity (PSR sort gate): low polyreactivity

Sequence: QVQLLESGAGLVQAGGSLRLICAASVNTFYWYAMGRYRQAPGKERELVAAITWSGGSTHYADSVKGRFTISRDNAKNTVYLQMNSLTPEYTAVYYCAARYFRWWDMGYWGQGTQVSVSS
- polyreactivity (PSR sort gate): high polyreactivity

Sequence: QVQLVESGGGLVHAGGSIRLSCAASGRIFPAYAMGWYRQAPGKERELVASIRRGGITYADSVKGRFTISRDNAKNTVYLQMNSLKPEDTAVYYCNADYRGWVYHMDYWGQGTQVTVSS
- polyreactivity (PSR sort gate): low polyreactivity

Sequence: QVQLVESGGGLVQAGGSLSLSCAASGFIFVPYAMGLSRQAPGKERELVARITWSGGRTYYADSVKGRFTISRDNAKNTVYLQLNSLKPEDTAVYYCNADVYGFDYWGQGTQVTVSS
- polyreactivity (PSR sort gate): high polyreactivity

Sequence: QVQLVESGGGLFQAGGSLSLSCAASGRIYNPNALGWYRQAPGKERELVAAITSGDSTNYADSVKGRFTISRDNAKNTVYLEMNSLKPEDTAVYYCAADWTYPYNSWGQGTQVTVSS
- polyreactivity (PSR sort gate): low polyreactivity

Sequence: QVQLVESGGGLVQAGGSLRLSCAASGRTFYVYAMGWYIQAPGKERELVAAISWGGGSTYYSDSVKGRFTISRDNAKNTVYLQMNSLKPEDTAVYFCAADKTRYRLGRDYWGQGTQVTVSS
- polyreactivity (PSR sort gate): low polyreactivity

Sequence: QVQHVESRGGLVQAGGSLRLSCAASGFTSDSNAMGWYRQAPGKERELVAAIDSGGGSTYYADSVKGRFTISRDNAKNTVYLQMISLKPEDTAVYYCNAEQTPFVASLRVGEYGYWGQGTQVTVSS
- polyreactivity (PSR sort gate): low polyreactivity

Sequence: QVQLVESGGGLVQAGGSLRLSCAASVRTFYIYAMGWYIQAHGKERELVAAITSVGSTNYADSVKGRFTISRDNAKNTVNLQMNSLKPEDTAVYYCAAESTEGTSGDYDYWGQGTQVTVSS
- polyreactivity (PSR sort gate): low polyreactivity

Sequence: QVQLVESGGGLVQAGGSLRLSFAASGRTFDRNAMGWYRQAPGKERELVARITIDGSTNYADSVKGRFTISRDNAKNTVYLQMNSLKPEDTAVYYCATDQLSLSWYFRPYDYGYWGQGTQVTVSS
- polyreactivity (PSR sort gate): high polyreactivity

Sequence: QVQLVESGGGLVQAGGSLRLSCAASGFTLGFYAMGWYIQAPGKERELVAAINWRGGSTYYADSVKGRFTISRDNAKNTVYLQMNSLKPEDTAVYYCNAGFNTGGYGYWGQGTQVTVSS
- polyreactivity (PSR sort gate): high polyreactivity

Sequence: QVQLVESGGGLVQAGGSLRLSCAASGYTFVRYALGWYRQAPGKEMELVAAMSRSGGSTYYADSVKGRFTISRDNAKNTVYLQMNSLKPEDTAVYYCNAYPYSYYDYDYWGQGTQVTVSS
- polyreactivity (PSR sort gate): high polyreactivity
